Measurements from the Human Domainome abundance scans (Beltran et al. 2025).
± gives the uncertainty stated by the source.

B1: Apoptosis-associated speck-like protein containing a CARD, residues 114 to 194; numbered along this chain, Q9ULZ3 (parent)
chain: FIDQHRAALIARVTNVEWLLDALYGKVLTDEQYQAVRAEPTNPSKMRKLFSFTPAWNWTCKDLLLQALRESQSYLVEDLER

Variants of: B1
Experiment: abundance fitness (aPCA) (normalised: wild type 0, dead -1); higher = more abundant; growth selection in yeast, the domain comes from the species named
Settings: Homo sapiens

Variant | abundance fitness
FIDHHRAALIARVTNVEWLLDALYGKVLTDEQYQAVRAEPTNPSKMRKLFSFTPAWNWTCKDLLLQALRESQSYLVEDLER [Q4H] | -0.315 ± 0.14
FIDDHRAALIARVTNVEWLLDALYGKVLTDEQYQAVRAEPTNPSKMRKLFSFTPAWNWTCKDLLLQALRESQSYLVEDLER [Q4D] | -0.432 ± 0.24
FIDIHRAALIARVTNVEWLLDALYGKVLTDEQYQAVRAEPTNPSKMRKLFSFTPAWNWTCKDLLLQALRESQSYLVEDLER [Q4I] | -0.015 ± 0.12
FIDGHRAALIARVTNVEWLLDALYGKVLTDEQYQAVRAEPTNPSKMRKLFSFTPAWNWTCKDLLLQALRESQSYLVEDLER [Q4G] | -0.685 ± 0.081
FIDKHRAALIARVTNVEWLLDALYGKVLTDEQYQAVRAEPTNPSKMRKLFSFTPAWNWTCKDLLLQALRESQSYLVEDLER [Q4K] | -0.111 ± 0.074
FIDCHRAALIARVTNVEWLLDALYGKVLTDEQYQAVRAEPTNPSKMRKLFSFTPAWNWTCKDLLLQALRESQSYLVEDLER [Q4C] | -0.43 ± 0.14
FIDAHRAALIARVTNVEWLLDALYGKVLTDEQYQAVRAEPTNPSKMRKLFSFTPAWNWTCKDLLLQALRESQSYLVEDLER [Q4A] | -0.358 ± 0.064
FIDFHRAALIARVTNVEWLLDALYGKVLTDEQYQAVRAEPTNPSKMRKLFSFTPAWNWTCKDLLLQALRESQSYLVEDLER [Q4F] | -0.34 ± 0.23
FWDQHRAALIARVTNVEWLLDALYGKVLTDEQYQAVRAEPTNPSKMRKLFSFTPAWNWTCKDLLLQALRESQSYLVEDLER [I2W] | -0.619 ± 0.43
SIDQHRAALIARVTNVEWLLDALYGKVLTDEQYQAVRAEPTNPSKMRKLFSFTPAWNWTCKDLLLQALRESQSYLVEDLER [F1S] | -0.385 ± 0.21
GIDQHRAALIARVTNVEWLLDALYGKVLTDEQYQAVRAEPTNPSKMRKLFSFTPAWNWTCKDLLLQALRESQSYLVEDLER [F1G] | -0.968 ± 0.25
HIDQHRAALIARVTNVEWLLDALYGKVLTDEQYQAVRAEPTNPSKMRKLFSFTPAWNWTCKDLLLQALRESQSYLVEDLER [F1H] | -0.375 ± 0.41
VIDQHRAALIARVTNVEWLLDALYGKVLTDEQYQAVRAEPTNPSKMRKLFSFTPAWNWTCKDLLLQALRESQSYLVEDLER [F1V] | -0.908 ± 0.15
CIDQHRAALIARVTNVEWLLDALYGKVLTDEQYQAVRAEPTNPSKMRKLFSFTPAWNWTCKDLLLQALRESQSYLVEDLER [F1C] | -1.04 ± 0.38
RIDQHRAALIARVTNVEWLLDALYGKVLTDEQYQAVRAEPTNPSKMRKLFSFTPAWNWTCKDLLLQALRESQSYLVEDLER [F1R] | -0.498 ± 0.26
EIDQHRAALIARVTNVEWLLDALYGKVLTDEQYQAVRAEPTNPSKMRKLFSFTPAWNWTCKDLLLQALRESQSYLVEDLER [F1E] | -0.745 ± 0.27
LIDQHRAALIARVTNVEWLLDALYGKVLTDEQYQAVRAEPTNPSKMRKLFSFTPAWNWTCKDLLLQALRESQSYLVEDLER [F1L] | -0.809 ± 0.2
YIDQHRAALIARVTNVEWLLDALYGKVLTDEQYQAVRAEPTNPSKMRKLFSFTPAWNWTCKDLLLQALRESQSYLVEDLER [F1Y] | -1 ± 0.43

Variant | abundance fitness
DIDQHRAALIARVTNVEWLLDALYGKVLTDEQYQAVRAEPTNPSKMRKLFSFTPAWNWTCKDLLLQALRESQSYLVEDLER [F1D] | -0.685 ± 0.28
MIDQHRAALIARVTNVEWLLDALYGKVLTDEQYQAVRAEPTNPSKMRKLFSFTPAWNWTCKDLLLQALRESQSYLVEDLER [F1M] | -0.661 ± 0.27
FINQHRAALIARVTNVEWLLDALYGKVLTDEQYQAVRAEPTNPSKMRKLFSFTPAWNWTCKDLLLQALRESQSYLVEDLER [D3N] | -0.599 ± 0.12
FIAQHRAALIARVTNVEWLLDALYGKVLTDEQYQAVRAEPTNPSKMRKLFSFTPAWNWTCKDLLLQALRESQSYLVEDLER [D3A] | -0.777 ± 0.12
FICQHRAALIARVTNVEWLLDALYGKVLTDEQYQAVRAEPTNPSKMRKLFSFTPAWNWTCKDLLLQALRESQSYLVEDLER [D3C] | -0.822 ± 0.23
FIPQHRAALIARVTNVEWLLDALYGKVLTDEQYQAVRAEPTNPSKMRKLFSFTPAWNWTCKDLLLQALRESQSYLVEDLER [D3P] | -0.951 ± 0.21
FIFQHRAALIARVTNVEWLLDALYGKVLTDEQYQAVRAEPTNPSKMRKLFSFTPAWNWTCKDLLLQALRESQSYLVEDLER [D3F] | -0.749 ± 0.38
FITQHRAALIARVTNVEWLLDALYGKVLTDEQYQAVRAEPTNPSKMRKLFSFTPAWNWTCKDLLLQALRESQSYLVEDLER [D3T] | -0.907 ± 0.25
FIWQHRAALIARVTNVEWLLDALYGKVLTDEQYQAVRAEPTNPSKMRKLFSFTPAWNWTCKDLLLQALRESQSYLVEDLER [D3W] | -0.582 ± 0.13
FILQHRAALIARVTNVEWLLDALYGKVLTDEQYQAVRAEPTNPSKMRKLFSFTPAWNWTCKDLLLQALRESQSYLVEDLER [D3L] | -0.881 ± 0.14
FIQQHRAALIARVTNVEWLLDALYGKVLTDEQYQAVRAEPTNPSKMRKLFSFTPAWNWTCKDLLLQALRESQSYLVEDLER [D3Q] | -0.929 ± 0.19
FIKQHRAALIARVTNVEWLLDALYGKVLTDEQYQAVRAEPTNPSKMRKLFSFTPAWNWTCKDLLLQALRESQSYLVEDLER [D3K] | -0.825 ± 0.44
FIEQHRAALIARVTNVEWLLDALYGKVLTDEQYQAVRAEPTNPSKMRKLFSFTPAWNWTCKDLLLQALRESQSYLVEDLER [D3E] | -0.387 ± 0.097
FIHQHRAALIARVTNVEWLLDALYGKVLTDEQYQAVRAEPTNPSKMRKLFSFTPAWNWTCKDLLLQALRESQSYLVEDLER [D3H] | -0.616 ± 0.16
FISQHRAALIARVTNVEWLLDALYGKVLTDEQYQAVRAEPTNPSKMRKLFSFTPAWNWTCKDLLLQALRESQSYLVEDLER [D3S] | -0.592 ± 0.11
FIIQHRAALIARVTNVEWLLDALYGKVLTDEQYQAVRAEPTNPSKMRKLFSFTPAWNWTCKDLLLQALRESQSYLVEDLER [D3I] | -0.796 ± 0.27
FIGQHRAALIARVTNVEWLLDALYGKVLTDEQYQAVRAEPTNPSKMRKLFSFTPAWNWTCKDLLLQALRESQSYLVEDLER [D3G] | -0.805 ± 0.088
